# Biological target: Encapsulin–SpyTag (Myxococcus xanthus | Streptococcus pyogenes) (UniProt Q1D6H4)
# Test: reducing SDS-PAGE + SEC
# Sequence of Encapsulin–SpyTag (Myxococcus xanthus | Streptococcus pyogenes) (Q1D6H4 1-287, tags left off): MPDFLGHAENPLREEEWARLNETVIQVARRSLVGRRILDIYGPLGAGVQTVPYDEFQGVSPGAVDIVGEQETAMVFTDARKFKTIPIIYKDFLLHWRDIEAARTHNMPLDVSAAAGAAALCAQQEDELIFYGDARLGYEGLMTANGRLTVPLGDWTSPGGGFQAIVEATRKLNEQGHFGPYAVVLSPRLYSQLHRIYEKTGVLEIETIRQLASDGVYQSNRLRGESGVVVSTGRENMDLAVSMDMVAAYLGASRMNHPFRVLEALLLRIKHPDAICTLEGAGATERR
substance,measurement,value
mRBD–SpyCatcher (from UniProt P0DTC2 332-532),per cent conjugation,90 per cent

# — publication PMC9961482
